Measured values: US20140343124A1 (ROYAL INSTITUTION FOR THE ADVANCEMENT OF LEARNING MCGILL …, published 2014)
Blank lines part the entries; values can stand above or below the molecule they belong to.

Experiments:
[1] = target: actin (actin stress fibers / actin cytoskeleton of glioma cells); test: cell-based or functional assay
MYC-LC2 = target: T1, MYC-LC2 (UniProt P78559 2567-2803, limits assumed); test: co-immunoprecipitation of heterologously expressed proteins
T1 construct: domain: light chain (LC2) subunit; also called LC2 (heterologously expressed, MYC-tagged); not shown: MYC tag
T1 sequence (looked up): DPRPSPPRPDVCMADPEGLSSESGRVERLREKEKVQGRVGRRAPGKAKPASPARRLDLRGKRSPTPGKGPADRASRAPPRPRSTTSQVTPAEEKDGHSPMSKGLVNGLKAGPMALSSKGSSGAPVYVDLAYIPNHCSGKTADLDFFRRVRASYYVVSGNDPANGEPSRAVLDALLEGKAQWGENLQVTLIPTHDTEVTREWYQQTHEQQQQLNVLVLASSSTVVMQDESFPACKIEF

- fold decrease in invasiveness in a 3D invasion assay [1]: 3 fold
Molecule: DRR^ΔPEPE (from UniProt O95990 1-144)

- binding result (MYC-LC2): no binding
B1: DRR^ΔHRE (other, UniProt O95990 1-144, looked up)
chain: MYSEIQRERADIGGLMARPEYREWNPELIKPKKLLNPVKASRSHQELAAALLMNHRRGLGVDSKPELQRVLEHRRRNQLIKKKKEELEAKRLQCPFEQELLRRQQRLNQLEKPPEKEEDHAPEFIKVRENLRRIATLTSEEREL
notes: also called non-LC2 form of DRR
